Data: patent publication US12263245B2, “Immunomodulating treatments of body cavities” (UROGEN PHARMA LTD., priority 2023, dated 2025)

What was measured:
[1] = system: CD4+ICOShi T cells; conditions: patients treated systemically with two doses, cited from earlier work
[2] = design: species or system human; conditions: in vivo
[3] = Aggregation stability of AGEN1884 drug product; format: physicochemical
Description: AGEN1884 is very stable to aggregation.

Row | Substance | Expression of CD4+ICOShi T cells ([1]; blood samples) | Increase in levels of IFN-γ compared to untreated patients [1] | Sustained concentration of zalifrelimab detected in urine overtime [2] | Increase in aggregate ([3]; all samples at all ambient temperatures analyzed (even elevated) through the nine-month time point) | Zalifrelimab aggregates after 24 hours ([3]; stored at about 2° C.-8° C. for at least 24 hours)
1 | ipilimumab: an anti-CTLA-4 antibody | increased expression | approximately five-fold | – | – | –
2 | zalifrelimab: recombinant, fully human immunoglobulin G1 monoclonal antibody that neutralizes the inhibitory effects of CTLA-4 | – | – | below the level of quantitation | no increase in aggregate was detected | substantially free from zalifrelimab aggregates
